The values that follow are results of earlier work, collected in PMC9464622, “The collectin SP-A and its trimeric recombinant fragment protect alveolar epithelial cells from the cytotoxic and proinflammatory effects of human cathelicidin in vitro” (Frontiers in Immunology, 2022).

For the data set, the system named is LL-37 and β-defensin 3. The text has this:
The host appears to protect its own cells from LL-37 cytotoxicity by several mechanisms. […] In addition, the C1q globular head receptor (gC1qR, also known as p33) protects ...

B1: p33: negatively charged protein expressed on the surface of various cell types (protein, UniProt Q07021 74-282, looked up)
Complement component 1 Q …: LHTDGDKAFVDFLSDEIKEERKIQKHKTLPKMSGGWELELNGTEAKLVRKVAGEKITVTFNINNSIPPTFDGEEEPSQGQKVEEQEPELTSTPNFVVEVIKNDDGKKALVLDCHYPEDEVGQEDEAESDIFSIREVSFQSTGESEWKDTNYTLNTDSLDWALYDHLMDFLADRGVDNTFADELVELSTALEHQEYITFLEDLKSFVKSQ
Consider B1, for which the “binding of LL-37 and β-defensin 3” value was “binds LL-37 and β-defensin 3 with high affinity”.
